# Laboratory results as given in paper PMC4066765, “Insights into how Spt5 functions in transcription elongation and repressing transcription coupled DNA repair” (Nucleic Acids Research, 2014).
# B1: Rpb4 (endogenous) (natural protein, S. cerevisiae, UniProt P20433 1-221, looked up)
# chain: MNVSTSTFQTRRRRLKKVEEEENAATLQLGQEFQLKQINHQGEEEELIALNLSEARLVIKEALVERRRAFKRSQKKHKKKHLKHENANDETTAVEDEDDDLDEDDVNADDDDFMHSETREKELESIDVLLEQTTGGNNKDLKNTMQYLTNFSRFRDQETVGAVIQLLKSTGLHPFEVAQLGSLACDTADEAKTLIPSLNNKISDDELERILKELSNLETLY
# notes: Rpb4, subunit of RNA polymerase II, S. cerevisiae; detected with antibody 2Y14; source: endogenous, S. cerevisiae (BJ5465 derivatives), in solubilised chromatin fraction
# Biological target: T1, Rpb1, largest subunit of RNA polymerase II (S. cerevisiae, UniProt P04050 1-1733)
# T1 construct: Rpb1, largest subunit of RNA polymerase II, S. cerevisiae; detected and immunoprecipitated with antibody 8WG16; Stands in the cell as part of the 12-subunit RNAP II; in the co-IP it is the bait (8WG16); also called RNAP II; core RNAP II (immunoprecipitated through Rpb1); source: endogenous, S. cerevisiae (BJ5465 derivatives); in living cells (cross-linking) and in solubilised chromatin fraction …
# T1 sequence (P04050 whole entry): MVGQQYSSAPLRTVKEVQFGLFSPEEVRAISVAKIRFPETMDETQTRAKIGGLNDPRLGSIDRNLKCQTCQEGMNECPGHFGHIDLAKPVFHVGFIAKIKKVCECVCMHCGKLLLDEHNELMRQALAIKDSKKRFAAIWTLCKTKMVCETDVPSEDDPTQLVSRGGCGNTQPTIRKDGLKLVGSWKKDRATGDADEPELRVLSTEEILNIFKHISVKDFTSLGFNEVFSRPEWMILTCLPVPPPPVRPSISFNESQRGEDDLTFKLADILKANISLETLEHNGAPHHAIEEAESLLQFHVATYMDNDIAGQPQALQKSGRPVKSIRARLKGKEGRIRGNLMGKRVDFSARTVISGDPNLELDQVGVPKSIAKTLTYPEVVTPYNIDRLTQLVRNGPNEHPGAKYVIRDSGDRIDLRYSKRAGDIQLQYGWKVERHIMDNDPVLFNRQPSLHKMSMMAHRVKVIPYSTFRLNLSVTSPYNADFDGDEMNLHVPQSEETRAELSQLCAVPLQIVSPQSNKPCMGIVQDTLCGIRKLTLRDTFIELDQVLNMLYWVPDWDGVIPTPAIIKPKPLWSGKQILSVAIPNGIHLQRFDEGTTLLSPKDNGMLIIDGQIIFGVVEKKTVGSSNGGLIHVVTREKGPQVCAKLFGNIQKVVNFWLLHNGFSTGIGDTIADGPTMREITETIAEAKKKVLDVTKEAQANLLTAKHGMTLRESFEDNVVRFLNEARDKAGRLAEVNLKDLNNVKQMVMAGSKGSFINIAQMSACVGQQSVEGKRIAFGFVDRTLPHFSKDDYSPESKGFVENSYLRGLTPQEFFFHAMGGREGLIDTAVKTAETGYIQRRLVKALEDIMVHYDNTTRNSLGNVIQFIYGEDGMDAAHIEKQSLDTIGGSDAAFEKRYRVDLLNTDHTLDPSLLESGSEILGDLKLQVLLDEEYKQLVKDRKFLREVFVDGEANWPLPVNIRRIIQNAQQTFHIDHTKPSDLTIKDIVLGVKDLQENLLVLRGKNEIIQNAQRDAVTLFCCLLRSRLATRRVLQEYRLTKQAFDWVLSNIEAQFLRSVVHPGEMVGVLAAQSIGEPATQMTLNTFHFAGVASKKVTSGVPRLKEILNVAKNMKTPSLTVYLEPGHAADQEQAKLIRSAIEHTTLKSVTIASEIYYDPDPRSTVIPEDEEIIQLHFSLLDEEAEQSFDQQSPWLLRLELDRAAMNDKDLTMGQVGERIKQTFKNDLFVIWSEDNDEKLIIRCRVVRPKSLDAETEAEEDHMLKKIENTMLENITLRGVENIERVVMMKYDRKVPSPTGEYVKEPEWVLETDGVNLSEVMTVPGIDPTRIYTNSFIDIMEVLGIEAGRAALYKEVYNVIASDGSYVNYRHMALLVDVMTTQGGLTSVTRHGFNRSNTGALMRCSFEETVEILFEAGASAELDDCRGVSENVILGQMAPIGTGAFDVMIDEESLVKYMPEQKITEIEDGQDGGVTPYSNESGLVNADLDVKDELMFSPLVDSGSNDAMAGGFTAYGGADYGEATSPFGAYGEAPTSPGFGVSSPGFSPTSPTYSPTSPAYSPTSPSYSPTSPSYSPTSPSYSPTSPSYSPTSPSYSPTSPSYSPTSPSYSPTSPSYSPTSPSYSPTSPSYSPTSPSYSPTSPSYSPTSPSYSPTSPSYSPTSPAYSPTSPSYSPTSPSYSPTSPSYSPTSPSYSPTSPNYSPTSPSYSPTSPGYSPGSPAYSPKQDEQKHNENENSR
# Assay: co-IP; chromatin fraction of log phase yeast cells solubilised by sonication in 50 mM HEPES pH 7.5, 140 mM NaCl, 1% Triton X-100, 0.1% sodium deoxycholate, 1 mM EDTA, 0.1% SDS; immunoprecipitated with 4 μg anti-Rpb1 8WG16; blots with 8WG16, 2Y14 and anti-Myc; cells expressing full-length, KOW4-deleted or KOW4-5-deleted Spt5
# Details: partners not purified
binder,measurement,value
B1,fold reduction of co-immunoprecipitated Rpb4 in cells with KOW4-5-deleted Spt5 against cells with full-length Spt5,> 2 fold
